According to paper PMC314469, “Protein Interaction Networks by Proteome Peptide Scanning” (PLoS Biology, 2004):

T1: Boi2 SH3 (BOI2_YEAST), P39969
T1 chain: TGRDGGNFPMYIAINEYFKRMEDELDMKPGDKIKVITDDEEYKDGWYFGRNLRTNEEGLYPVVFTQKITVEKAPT

T2: Myo5 SH3 (MYO5_YEAST), Q04439
T2 chain: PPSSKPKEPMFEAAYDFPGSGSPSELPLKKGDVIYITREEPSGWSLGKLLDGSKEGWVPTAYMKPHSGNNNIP

T3: Boi1 SH3 (BOI1_YEAST), P38041
T3 chain: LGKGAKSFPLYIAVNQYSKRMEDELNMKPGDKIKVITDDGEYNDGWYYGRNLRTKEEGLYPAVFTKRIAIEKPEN

T4: Yhr016c SH3 (YSC84_YEAST), P32793
T4 chain: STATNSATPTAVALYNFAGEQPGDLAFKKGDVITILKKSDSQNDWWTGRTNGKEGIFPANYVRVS

T5: Rvs167 SH3 (RV167_YEAST), P39743
T5 chain: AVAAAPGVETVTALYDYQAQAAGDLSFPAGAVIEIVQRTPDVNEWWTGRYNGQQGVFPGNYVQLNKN

T6: Yfr024 SH3 (LSB3_YEAST), P43603
T6 chain: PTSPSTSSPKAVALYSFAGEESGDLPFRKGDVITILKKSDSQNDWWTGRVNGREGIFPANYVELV


Tests used:
Experiment in all cases: SPOT array
[1] = biological target: T1, Boi2 SH3 (BOI2_YEAST), P39969
[2] = biological target: T2, Myo5 SH3 (MYO5_YEAST), Q04439
[3] = biological target: T3, Boi1 SH3 (BOI1_YEAST), P38041
[4] = biological target: T4, Yhr016c SH3 (YSC84_YEAST), P32793
[5] = biological target: Sho1 SH3 (SHO1_YEAST), P40073
Chain of Sho1 SH3 (SHO1_YEAST), P40073 (P40073 295-366): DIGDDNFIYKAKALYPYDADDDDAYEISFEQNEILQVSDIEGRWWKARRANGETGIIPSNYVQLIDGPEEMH

[6] = biological target: T5, Rvs167 SH3 (RV167_YEAST), P39743
[7] = biological target: T6, Yfr024 SH3 (LSB3_YEAST), P43603

| Binder | normalised SPOT signal, Boehringer light units (BLU); mean over the file's lines of this peptide [1] | normalised SPOT signal, Boehringer light units (BLU); mean over the file's lines of this peptide [2] | normalised SPOT signal, Boehringer light units (BLU); mean over the file's lines of this peptide [3] | normalised SPOT signal, Boehringer light units (BLU); mean over the file's lines of this peptide [4] | normalised SPOT signal, Boehringer light units (BLU); mean over the file's lines of this peptide [5] | normalised SPOT signal, Boehringer light units (BLU); mean over the file's lines of this peptide [6] | normalised SPOT signal, Boehringer light units (BLU); mean over the file's lines of this peptide [7] |
| --- | --- | --- | --- | --- | --- | --- | --- |
| LNFKRLLPRDPSEK [YBR239C 260-273] | 57.4 | 554 | 1070 | 3490 | 1360 | 1630 | 1290 |
| LNFPKNIPTIPFYV [YDR402C 27-40] | -0 | 256 | 92.6 | 22.8 | 131 | 53 | 26.9 |
| LNGLKSSPADPHLS [YLR072W 61-74] | 39.1 | 153 | 63.9 | 23.9 | 20.5 | 60.3 | 2.4 |
| LNKTKLLPQSPILN [YJR005W 603-616] | 8.8 | 118 | 93.4 | 14.5 | 1920 | 35.5 | 71.9 |
| LNLSKDAPVPPAPE [YOL006C 316-329] | 19.2 | 161 | 103 | 81 | 54.1 | 128 | 0 |
| LNPNRRAPRRPLST [YJL128C 180-193] | 506 | 8000 | 4910 | 173 | 585 | 1240 | 3720 |
| LNQSKGQPFQPSPT [YBL101C 22-35] | 0 | 255 | 139 | 26.4 | 24.8 | 111 | 16 |
| LNRKKVTPQLPKVT [YFL013C 529-542] | 27.9 | 500 | 384 | 22.7 | 263 | 75.9 | 142 |
| LNRQKNYPDAPAIF [YKL216W 87-100] | 7.9 | 86.4 | 71.2 | 19.7 | 56.9 | 63.3 | 38.6 |
| LNTMKKRPAPPSLP [YOR231W 77-90] | 72.5 | 22300 | 97.3 | 202 | 374 | 271 | 1440 |
| LPEKKNSPTTPSVF [YOL152W 75-88] | 0 | 102 | 88.9 | 22.9 | 54.9 | 67.3 | 11.4 |
| LPEPRFYPLSPKNN [YCL051W 94-107] | 47 | 289 | 95.3 | 30.9 | 33 | 49.4 | 202 |
| LPFPRKNPKLPENT [YHR099W 3263-3276] | 38.3 | 147 | 289 | 44.2 | 149 | 40.2 | 322 |
